The source of these data is US20060053496A1 (UNIVERSITY OF NORTH CAROLINA AT CHAPEL HILL, published 2006).

For the experiment, the target named is T1, FLAG-tagged Monarch-1 (human, UniProt P59046 1-1061).
T1 construct: Expressed in transfected 293T cells and immunoprecipitated from lysate with anti-FLAG M2-agarose; also called FLAG-Monarch-1; Caterpiller 19.3; not shown: N-terminal FLAG tag added by PCR
T1 sequence: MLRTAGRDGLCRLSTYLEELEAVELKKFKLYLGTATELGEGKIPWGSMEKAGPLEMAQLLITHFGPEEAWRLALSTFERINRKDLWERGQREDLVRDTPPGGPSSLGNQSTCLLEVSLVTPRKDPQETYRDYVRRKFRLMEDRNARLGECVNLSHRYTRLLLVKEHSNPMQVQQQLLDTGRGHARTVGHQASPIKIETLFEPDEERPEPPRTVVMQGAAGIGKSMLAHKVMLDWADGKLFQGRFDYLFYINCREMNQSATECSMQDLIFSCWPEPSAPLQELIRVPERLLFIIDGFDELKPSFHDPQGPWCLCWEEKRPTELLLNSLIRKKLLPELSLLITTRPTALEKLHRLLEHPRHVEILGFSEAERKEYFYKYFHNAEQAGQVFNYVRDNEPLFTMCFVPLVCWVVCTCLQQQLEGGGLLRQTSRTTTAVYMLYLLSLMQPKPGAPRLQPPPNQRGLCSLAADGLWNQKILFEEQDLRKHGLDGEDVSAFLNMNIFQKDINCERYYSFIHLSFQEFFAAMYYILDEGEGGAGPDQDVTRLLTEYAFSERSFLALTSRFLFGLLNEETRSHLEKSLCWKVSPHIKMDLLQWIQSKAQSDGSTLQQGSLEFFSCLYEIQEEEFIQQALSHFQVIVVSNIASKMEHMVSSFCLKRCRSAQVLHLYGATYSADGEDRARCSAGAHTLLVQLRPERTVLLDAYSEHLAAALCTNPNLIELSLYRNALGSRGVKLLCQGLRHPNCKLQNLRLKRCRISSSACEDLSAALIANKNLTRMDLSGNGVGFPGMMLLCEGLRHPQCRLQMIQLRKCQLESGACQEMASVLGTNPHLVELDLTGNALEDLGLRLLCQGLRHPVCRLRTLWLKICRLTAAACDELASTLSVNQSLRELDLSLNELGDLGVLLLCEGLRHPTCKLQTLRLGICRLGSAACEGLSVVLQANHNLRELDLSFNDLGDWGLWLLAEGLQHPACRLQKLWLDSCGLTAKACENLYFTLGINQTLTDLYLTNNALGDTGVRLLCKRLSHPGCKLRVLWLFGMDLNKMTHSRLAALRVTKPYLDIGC
The experiment in a line: co-immunoprecipitation from transfected 293T cells (anti-FLAG M2-agarose IP, anti-HA western blot). Here is the method: Transfections and Immunoprecipitations. 2.5 million 293T cells were seeded in 10-cm cell culture plates. Eighteen to twenty-four hours later, 3 μg of each of the indicated plasmids was transfected using FUGENE6™ (Roche, Indianapolis, Ind.) at a 3:1 FUGENE6™ to DNA ratio and the cells were incubated an additional 18 to 24 hours. Cells were lysed in 0.5% NP-40, 150 mM NaCl, 50 mM Tris pH 8.0, 160 mM EDTA, 50 mM NaF, 10 mM sodium phosphate supplemented with protease inhibitor cocktail (Roche, Indianapolis, Ind.). Nuclei were removed and the resulting supernatant was pre-cleared with mouse IgG-conjugated agarose (Sigma, St. Louis) for 1 hour. FLAG®-tagged proteins were subsequently immunoprecipitated overnight with 35 μl M2-agarose equilibrated in lysis buffer. Beads were washed four times in lysis buffer and proteins eluted in sample buffer (20% Glycerol, 4% SDS, 130 mM Tris pH 6.8, 20 mM DTT) for western blot analysis.
Monarch-1 Associates with TRAF6 but not MyD88 or IRAK1. In addition to the proteins identified by MALDI-MS, 293T cells were transfected with Monarch-1 cDNA and one of the following: HA-MyD88, HA-TRAF6, or HA-IRAK1. Twenty-four hours later the cells were lysed and Monarch-1-containing protein complexes were immunoprecipitated with anti-FLAG® M2-agarose beads overnight. […]

B1: HA-IRAK1 (enzyme, human, UniProt P51617 1-712, looked up)
chain: MAGGPGPGEPAAPGAQHFLYEVPPWVMCRFYKVMDALEPADWCQFAALIVRDQTELRLCERSGQRTASVLWPWINRNARVADLVHILTHLQLLRARDIITAWHPPAPLPSPGTTAPRPSSIPAPAEAEAWSPRKLPSSASTFLSPAFPGSQTHSGPELGLVPSPASLWPPPPSPAPSSTKPGPESSVSLLQGARPFPFCWPLCEISRGTHNFSEELKIGEGGFGCVYRAVMRNTVYAVKRLKENADLEWTAVKQSFLTEVEQLSRFRHPNIVDFAGYCAQNGFYCLVYGFLPNGSLEDRLHCQTQACPPLSWPQRLDILLGTARAIQFLHQDSPSLIHGDIKSSNVLLDERLTPKLGDFGLARFSRFAGSSPSQSSMVARTQTVRGTLAYLPEEYIKTGRLAVDTDTFSFGVVVLETLAGQRAVKTHGARTKYLKDLVEEEAEEAGVALRSTQSTLQAGLAADAWAAPIAMQIYKKHLDPRPGPCPPELGLGLGQLACCCLHRRAKRRPPMTQVYERLEKLQAVVAGVPGHSEAASCIPPSPQENSYVSSTGRAHSGAAPWQPLAAPSGASAQAAEQLQRGPNQPVESDESLGGLSAALRSWHLTPSCPLDPAPLREAGCPQGDTAGESSWGSGPGSRPTAVEGLALGSSASSSSEPPQIIINPARQKMVQKLALYEDGALDSLQLLSSSSLPGLGLEQDRQGPEESDEFQS
notes: not shown: double 5' (N-terminal) HA tag
For the molecule B1, the binding result is given as “no binding”.
